Measured values from paper PMC8228269, “Characterization of Feruloyl Esterase from Bacillus pumilus SK52.001 and Its Application in Ferulic Acid Production from De-Starched Wheat Bran” (Foods, 2021).

Substrate: COC(=O)/C=C/c1ccc(O)c(OC)c1
Test: HPLC-UV of released ferulic acid, nonlinear Hill fit
Type: biochemical, Bacillus pumilus
Conditions: 0.1-8 mmol/L substrate, 50 mmol/L Tris-HCl pH 9.0, 50 °C

B1: BpFAE (Bacillus pumilus) (protein)
chain: MNLQEQIKIAASLRQPAEGSLPSQSELKPVHPPEVNKMEYDIPTSAGETKVWIFKPVNTSKQPLPVFVNLHGGGFILGSAEMDNHWCPVIADRAQCIVVNVEYQLAPEHPFPAALHECYDVLKWLYEHPDELQIDPNRVAIGGHSAGGNLATAACLLNIQKGNPVPIVYQVLDYPPLDLATDPAEKPAFEEAIPVEMARLFNAFYLQGQDPHNPLVSPIFADRSSLAQLPPALVITAERDSLAQEAEQYAEKLKEAGVDVTYRQFKGVPHAFTHAGDLEIAEEAWHLMSDQLKKAFE
notes: C-terminal 6xHis tag (removal not mentioned); expressed in B. subtilis WB800 from pMA5 (NdeI/BamHI); forward primer reads […]; (ATG of the NdeI site followed by a second ATG)
  Km: 950 µM
  kcat: 514.91 s⁻¹
